# Data as given in US10441663B2, “Methods for treating cancer” (Bicycle Therapeutics Limited, priority 2016, dated 2019).
# *1 amine or outer side, *2 acyl side, *3 side chain or, on linkers, in order; H or OH if unused. Where a SMILES comes first, the peptide text is derived from it. Bridges are numbered along the chain shown (N, C = ends). [ ]: non-standard residue; d: D form. The star is where a group is joined. ξ: configuration not given here. X2 = COc1cc2cc(c1Cl)N(C)C(=O)C[C@H](OC(=O)[C@H](C)N(C)C(=O)CCSC1CC(=O)N(CC3CCC(C(=O)*)CC3)C1=O)[C@@]1(C)O[C@H]1[C@H](C)[C@@H]1C[C@@](O)(NC(=O)O1)[C@H](OC)/C=C/C=C(\C)C2; 1Nal = N[C@@H](Cc1cccc2ccccc12)C(=O)O; TBMB = c1c(C[*:1])cc(C[*:3])cc1C[*:2]; Tle = CC(C)(C)[C@H](N)C(=O)O; ξA = CC(N)C(=O)O; Sar = CNCC(=O)O
# Experiments:
# HT1080 cell line = assay: In vitro cytotoxicity, ATP endpoint assay after 72 hours incubation; assay type: cell-based; conditions: ATP endpoint, HT-1080 cells
# Description: To evaluate the in vitro cytotoxicity of BT1718 and BT1721 in an HT1080 cell line using an ATP endpoint assay after 72 hours incubation.
# Cells were seeded in 96 well plates (75 μl/well, HT1080=7500−15000 cell/well) and incubated overnight at 37° C.+5% CO2.
# The day after cell seeding, serial dilutions (1:5) of BT1718 and BT1721 were prepared in DMSO and diluted 1:71 in cell culture media to give 4× final concentrations. Twenty five μl/well was added to the cells (2 μM or 5 μM top final concentration of BT1718 and 2 μM or 5 μM top final concentration of BT1721, <0.6% final DMSO).
# Cells were 30-50% confluent upon dosing. Control wells containing 5 μM final concentration of staurosporine (positive control), lysis buffer (1% NP40, 20 mM Tris pH8, 137 mM NaCl, 10% glycerol, 2 mM EDTA, 1 mM Na Orthovanadate, 10 μg/ml leupeptin, 10 μg/ml aprotinin) positive control or media (negative control), were also included. Plates were sealed with gas permeable seals and incubated at 37° C.+5% CO2 for 72 hours. No wash steps were performed.
# After a total of 72 hours after dosing, ATPLite reagent (Perkin Elmer) was equilibrated to room temperate and reconstituted in the supplied buffer as per the manufacturer's instructions. One hundred μl 1× detection reagent was added per well. Plates were sealed, protected from light and shaken gently for 20 minutes to ensure complete cell lysis before luminescence was read using a BMG Pherastar FS plate reader. […] Data was analysed using GraphPad Prism. Non-linear regression fit was used to calculate a relative IC50 for each toxic agent: Y=Bottom+(Top−Bottom)/(1+10^((Log Ic50−X)*HillSlope)) where the IC50 is defined as 50% of the total cell kill achieved at the top concentration of toxin.
# EBC-1 xenograft = assay: Efficacy of BT1721 in EBC-1 xenograft model (Example 6); assay type: in vivo, Mus Musculus; conditions: for Tumor Size: Mean ± SEM
# Description: The objective of this study was to evaluate the anti-tumor efficacy of BT1721 in EBC-1 xenograft model in female BALB/c nude mice.
# The EBC-1 tumor cells were maintained in vitro as a monolayer culture in RPMI1640 medium supplemented with 10% heat inactivated fetal bovine serum at 37° C. in an atmosphere of 5% CO2 in air. The tumor cells were routinely subcultured twice weekly by trypsin-EDTA treatment. The cells growing in an exponential growth phase were harvested and counted for tumor inoculation.
# Each mouse was inoculated subcutaneously at the right flank with EBC-1 tumor cells (10×10^6) in 0.2 ml of PBS for tumor development. The treatments were started on Day 7 after the tumor inoculation when the average tumor size reached approximately 152 mm^3. Each group consisted of 3 tumor-bearing mice. The testing articles were administrated to the mice according to the predetermined regimen as shown in the experimental design (Table 43).
# All the procedures related to animal handling, care and the treatment in the study were performed according to the guidelines of the Association for Assessment and Accreditation of Laboratory Animal Care (AAALAC). At the time of routine monitoring, the animals were daily checked for any effects of tumor growth and treatments on normal behavior such as mobility, food and water consumption (by looking only), body weight gain/loss (body weights were measured every day), eye/hair matting and any other abnormal effect as stated in the protocol. Death and observed clinical signs were recorded on the basis of the numbers of animals within each subset.
# The major endpoint was to see if the tumor growth could be delayed or mice could be cured. Tumor size was measured three times weekly in two dimensions using a caliper, and the volume was expressed in mm^3 using the formula: V=0.5 a×b^2 where a and b are the long and short diameters of the tumor, respectively. The tumor size was then used for calculations of T/C value. The T/C value (in percent) is an indication of antitumor effectiveness; T and C are the mean volumes of the treated and control groups, respectively, on a given day.
# TGI was calculated for each group using the formula: TGI (%)=[1−(Ti−T0)/(Vi−V0)]×100; Ti is the average tumor volume of a treatment group on a given day, T0 is the average tumor volume of the treatment group on the day of treatment start, Vi is the average tumor volume of the vehicle control group on the same day with Ti, and V0 is the average tumor volume of the vehicle group on the day of treatment start.
# Summary statistics, including mean and the standard error of the mean (SEM), are provided for the tumor volume of each group at each time point.
# Statistical analysis of difference in tumor volume among the groups was conducted on the data obtained at the best therapeutic time point after the final dose.
# A one-way ANOVA was performed to compare tumor volume among groups, and when a significant F-statistics (a ratio of treatment variance to the error variance) was obtained, comparisons between groups were carried out with Games-Howell test. All data were analyzed using Prism. P<0.05 was considered to be statistically significant.
compound,measurement,setting,value
COc1cc2cc(c1Cl)N(C)C(=O)C[C@H](OC(=O)[C@H](C)N(C)C(=O)CCSC1CC(=O)N(CC3CCC(C(=O)NCCCC[C@H](NC(C)=O)C(=O)NCC(=O)N(C)CC(=O)N(C)CC(=O)N(C)CC(=O)N(C)CC(=O)N(C)CC(=O)N(C)CC(=O)N(C)CC(=O)N(C)CC(=O)N(C)CC(=O)N(C)CC(=O)NC(C)C(=O)N[C@H]4CSCc5cc6cc(c5)CSC[C@H](NC(=O)[C@@H](C)NC(=O)[C@H](Cc5cccc7ccccc57)NC(=O)[C@H](CCC(=O)O)NC(=O)[C@H](CC(N)=O)NC(=O)[C@@H](C)NC4=O)C(=O)N[C@@H](CCC(=O)O)C(=O)N[C@@H](CC(=O)O)C(=O)N[C@@H](Cc4ccccc4)C(=O)N[C@@H](Cc4ccc(O)cc4)C(=O)N[C@@H](CC(=O)O)C(=O)N[C@@H](C(C)(C)C)C(=O)N[C@H](C(N)=O)CSC6)CC3)C1=O)[C@@]1(C)O[C@H]1[C@H](C)[C@@H]1C[C@@](O)(NC(=O)O1)[C@H](OC)/C=C/C=C(\C)C2 (stereo partly shown) [BT1721] (Ac-K(X2)G[Sar][Sar][Sar][Sar][Sar][Sar][Sar][Sar][Sar][Sar][ξA]C[dA]NE[1Nal][dA]CEDFYD[Tle]C-NH2; linker 14-20-27 via TBMB),IC50,HT1080 cell line,8.9 nM
same,effect on tumor growth,"EBC-1 xenograft; 1 mg/kg, 3 mg/kg and 10 mg/kg, day 14",didn't show any inhibitory effect on tumor growth
same,tumor volume trace over time,"EBC-1 xenograft; 1 mg/kg, tiw, day 0",164 ± 31 mm^3
same,tumor volume trace over time,"EBC-1 xenograft; 1 mg/kg, tiw, day 2",291 ± 57 mm^3
same,tumor volume trace over time,"EBC-1 xenograft; 1 mg/kg, tiw, day 4",367 ± 68 mm^3
same,tumor volume trace over time,"EBC-1 xenograft; 1 mg/kg, tiw, day 7",640 ± 39 mm^3
same,tumor volume trace over time,"EBC-1 xenograft; 1 mg/kg, tiw, day 9",784 ± 40 mm^3
same,tumor volume trace over time,"EBC-1 xenograft; 1 mg/kg, tiw, day 11",874 ± 50 mm^3
same,T/C,"EBC-1 xenograft; 1 mg/kg, tiw, day 14",22%
same,TGI,"EBC-1 xenograft; 1 mg/kg, tiw, day 14",82%
same,tumor volume trace over time,"EBC-1 xenograft; 1 mg/kg, tiw, day 14",981 ± 47 mm^3
same,Tumor Size,"EBC-1 xenograft; 1 mg/kg, tiw, day 14",981 ± 47 mm^3
same,tumor volume trace over time,"EBC-1 xenograft; 3 mg/kg, tiw, day 0",142 ± 18 mm^3
same,tumor volume trace over time,"EBC-1 xenograft; 3 mg/kg, tiw, day 2",207 ± 60 mm^3
same,tumor volume trace over time,"EBC-1 xenograft; 3 mg/kg, tiw, day 4",310 ± 61 mm^3
same,tumor volume trace over time,"EBC-1 xenograft; 3 mg/kg, tiw, day 7",531 ± 116 mm^3
same,tumor volume trace over time,"EBC-1 xenograft; 3 mg/kg, tiw, day 9",708 ± 132 mm^3
same,tumor volume trace over time,"EBC-1 xenograft; 3 mg/kg, tiw, day 11",761 ± 147 mm^3
same,T/C,"EBC-1 xenograft; 3 mg/kg, tiw, day 14",26%
same,TGI,"EBC-1 xenograft; 3 mg/kg, tiw, day 14",77%
same,tumor volume trace over time,"EBC-1 xenograft; 3 mg/kg, tiw, day 14",920 ± 210 mm^3
same,Tumor Size,"EBC-1 xenograft; 3 mg/kg, tiw, day 14",920 ± 210 mm^3
same,effect on tumor growth,EBC-1 xenograft; 10 mg/kg tiw,did not show any inhibitory effect on tumor growth
same,tumor volume trace over time,"EBC-1 xenograft; 10 mg/kg, tiw, day 0",160 ± 25 mm^3
same,tumor volume trace over time,"EBC-1 xenograft; 10 mg/kg, tiw, day 2",249 ± 82 mm^3
same,tumor volume trace over time,"EBC-1 xenograft; 10 mg/kg, tiw, day 4",407 ± 85 mm^3
same,tumor volume trace over time,"EBC-1 xenograft; 10 mg/kg, tiw, day 7",632 ± 149 mm^3
same,tumor volume trace over time,"EBC-1 xenograft; 10 mg/kg, tiw, day 9",735 ± 201 mm^3
same,tumor volume trace over time,"EBC-1 xenograft; 10 mg/kg, tiw, day 11",858 ± 72 mm^3
same,T/C,"EBC-1 xenograft; 10 mg/kg, tiw, day 14",6%
same,TGI,"EBC-1 xenograft; 10 mg/kg, tiw, day 14",96%
same,tumor volume trace over time,"EBC-1 xenograft; 10 mg/kg, tiw, day 14",1142 ± 147 mm^3
same,Tumor Size,"EBC-1 xenograft; 10 mg/kg, tiw, day 14",1142 ± 147 mm^3
same,Body Weight,"EBC-1 xenograft; 1 mpk, tiw, day 0",22.2 ± 0.7 g
same,Body Weight (% Change),"EBC-1 xenograft; 1 mpk, tiw, day 0",0.0%
same,Body Weight,"EBC-1 xenograft; 1 mpk, tiw, day 2",22.0 ± 0.5 g
same,Body Weight (% Change),"EBC-1 xenograft; 1 mpk, tiw, day 2",−1.1 ± 0.7%
same,Body Weight,"EBC-1 xenograft; 1 mpk, tiw, day 4",22.4 ± 0.8 g
same,Body Weight (% Change),"EBC-1 xenograft; 1 mpk, tiw, day 4",0.8 ± 2.3%
same,Body Weight,"EBC-1 xenograft; 1 mpk, tiw, day 7",22.5 ± 0.9 g
same,Body Weight (% Change),"EBC-1 xenograft; 1 mpk, tiw, day 7",1.3 ± 1.4%
same,Body Weight,"EBC-1 xenograft; 1 mpk, tiw, day 9",23.2 ± 0.8 g
same,Body Weight (% Change),"EBC-1 xenograft; 1 mpk, tiw, day 9",4.4 ± 0.8%
same,Body Weight,"EBC-1 xenograft; 1 mpk, tiw, day 11",22.9 ± 1.0 g
same,Body Weight (% Change),"EBC-1 xenograft; 1 mpk, tiw, day 11",3.1 ± 1.7%
same,Body Weight,"EBC-1 xenograft; 1 mpk, tiw, day 14",23.3 ± 1.1 g
same,Body Weight (% Change),"EBC-1 xenograft; 1 mpk, tiw, day 14",4.6 ± 2.0%
same,Body Weight,"EBC-1 xenograft; 3 mpk tiw, day 0",22.9 ± 0.4 g
same,Body Weight (% Change),"EBC-1 xenograft; 3 mpk tiw, day 0",0.0%
same,Body Weight,"EBC-1 xenograft; 3 mpk tiw, day 2",22.3 ± 0.6 g
same,Body Weight (% Change),"EBC-1 xenograft; 3 mpk tiw, day 2",−2.8 ± 1.3%
same,Body Weight,"EBC-1 xenograft; 3 mpk tiw, day 4",22.3 ± 0.8 g
same,Body Weight (% Change),"EBC-1 xenograft; 3 mpk tiw, day 4",−2.8 ± 1.9%
same,Body Weight,"EBC-1 xenograft; 3 mpk tiw, day 7",23.1 ± 0.7 g
same,Body Weight (% Change),"EBC-1 xenograft; 3 mpk tiw, day 7",0.8 ± 1.8%
same,Body Weight,"EBC-1 xenograft; 3 mpk tiw, day 9",23.9 ± 1.0 g
same,Body Weight (% Change),"EBC-1 xenograft; 3 mpk tiw, day 9",4.0 ± 2.8%
same,Body Weight,"EBC-1 xenograft; 3 mpk tiw, day 11",24.0 ± 1.0 g
same,Body Weight (% Change),"EBC-1 xenograft; 3 mpk tiw, day 11",4.7 ± 2.7%
same,Body Weight,"EBC-1 xenograft; 3 mpk tiw, day 14",24.6 ± 1.0 g
same,Body Weight (% Change),"EBC-1 xenograft; 3 mpk tiw, day 14",7.2 ± 2.9%
same,Body Weight,"EBC-1 xenograft; 10 mpk tiw, day 0",23.2 ± 0.5 g
same,Body Weight (% Change),"EBC-1 xenograft; 10 mpk tiw, day 0",0.0%
same,Body Weight,"EBC-1 xenograft; 10 mpk tiw, day 2",23.2 ± 0.3 g
same,Body Weight (% Change),"EBC-1 xenograft; 10 mpk tiw, day 2",0.0 ± 1.5%
same,Body Weight,"EBC-1 xenograft; 10 mpk tiw, day 4",23.2 ± 0.4 g
same,Body Weight (% Change),"EBC-1 xenograft; 10 mpk tiw, day 4",−0.3 ± 0.5%
same,Body Weight,"EBC-1 xenograft; 10 mpk tiw, day 7",23.9 ± 0.5 g
same,Body Weight (% Change),"EBC-1 xenograft; 10 mpk tiw, day 7",2.8 ± 0.6%
same,Body Weight,"EBC-1 xenograft; 10 mpk tiw, day 9",24.4 ± 0.4 g
same,Body Weight (% Change),"EBC-1 xenograft; 10 mpk tiw, day 9",5.1 ± 0.6%
same,Body Weight,"EBC-1 xenograft; 10 mpk tiw, day 11",24.4 ± 0.6 g
same,Body Weight (% Change),"EBC-1 xenograft; 10 mpk tiw, day 11",5.0 ± 0.3%
same,Body Weight,"EBC-1 xenograft; 10 mpk tiw, day 14",25.3 ± 0.5 g
same,Body Weight (% Change),"EBC-1 xenograft; 10 mpk tiw, day 14",8.8 ± 0.7%
same,body weight effect,"EBC-1 xenograft; mouse, in vivo",maintained their bodyweight well
